Changes are numbered by the printed parent chain.

Experiment [1] addresses T1, human Siglec-8 (full-length, on transfected CHO or 293 cells, or native on human eosinophils) (human, UniProt Q9NYZ4 17-499). Put plainly: flow cytometry on human eosinophils (CD16- CCR3+) from whole blood; anti-human AF647 secondary; MFI. From the text:
To determine if increasing the valency of Siglec-8 antibodies could enhance agonist activity, the parental llama B12, D1 and E2 VHH sequences were used to generate tetravalent (Tet-B12 (cx8467; SEQ ID NO:50 linked to an Fe), Tet-D1 (cx8469; SEQ ID NO:56 linked to an Fe), and Tet-E2 (cx8463; SEQ ID NO:62 linked to an Fc)) and hexavalent (Hex-B12 (cx8466; SEQ ID NO:51 linked to an Fe), Hex-D1 (cx8523; SEQ ID NO:57 linked to an Fe), and Hex-E2 (cx8522; SEQ ID NO:165 linked to an Fc)), Siglec8-VHH-Fc antibodies linked to a reduced effector function xELL human Fc region via linker 2. The bivalent (Bi-B12 (cx8982), Bi-D1 (cx8983) and Bi-E2 (cx8984)), tetravalent, and hexavalent Siglec8-VHH-Fc antibodies were assessed by flow cytometry for binding to eosinophils (CD16⁻ CCR3⁺). Cells were isolated from whole blood by centrifugation, washed twice with 2% FBS PBS, and resuspended in 1×RBC lysis buffer for 10 minutes at room temperature (RT), washed once in 2% FBS PBS and treated with a second RBC lysis step and washed twice with 2% FBS. Cells were seeded at 200 k/well and resuspended in Human FC block for 10 minutes at RT. Cells were spun down and then resuspended in titrated test articles starting at 200 nM 1:4 and incubated for 30 minutes at 4° C. before being washed twice and resuspended in secondary mixture (2*; anti-CCR3 FITC, anti-human AF647, PI, anti-CD16 BV605) and incubated for 30 minutes at 4° C., washed twice, and bound antibodies were detected via flow cytometry (Novocyte).
As shown in FIG. 2A-2C, bivalent, tetravalent, and hexavalent Siglec8-VHH-Fc antibodies B12 (FIG. 2A), D1 (FIG. 2B) and E2 (FIG. 2C) bound to eosinophils. The calculated affinity was similar between the bivalent, tetravalent, and hexavalent hzSiglec8-VHH-Fc antibodies. The observed Bmax was reduced with increasing valency as anticipated, due the fact that the Fc portion of the antibody was detected in this assay and the ratio of Fc regions to anti-Siglec-8 binding domains is inverse to valency. No binding was observed on other granulocyte populations (CD16⁺ CCR3⁻).
(In flow cytometry, cells or beads pass a laser one at a time.)

For experiment [2], the target named is T1, human Siglec-8 (full-length, on …). Put plainly: flow cytometry on 293 cells transiently transfected with full-length human Siglec-8; A647 anti-human Fc-gamma secondary; median fluorescence, nonlinear fit; table under the graph (Kd column without unit, concentration axis nM Ab). The method, then: (§1) The binding of the lmG2 and humanized versions (further including Siglec8 hzG2v14), formatted as monomeric VHH-hIgG1 fusions proteins using a non-dimerizing human IgG1 Fe variant region lacking a hinge Fe NNT, was assessed by flow cytometry using 293 cells that had been transiently transfected with full-length human Siglec-8 and detected with an anti-human AF647 secondary antibody. Binding specificity was assessed using untransfected 293 cells as a control. For the binding assays, Siglec-8 293 cells or untransformed 293 cells were seeded in a 96 well U-bottom plate with 50 k cells/well in FACS buffer and incubated at 4° C. with a titration of anti-Siglec8-VHH-NNT for 30 minutes. After washing, the plates were incubated with an A647-conjugated anti-human Fcγ specific secondary antibody diluted 1:10,000 in FACS buffer for 20 minutes at 4° C. The plates were washed, and binding was determined by flow cytometry quantitating anti-human A647 median fluorescent intensity. The maximum specific binding (Bmax) and affinity (Kd) for was determined from the flow cytometry binding data using a nonlinear fit model.

Experiment [3] shares this target. Put plainly: flow cytometry on 293 cells transiently transfected with full-length human Siglec-8; A647 anti-human Fc-gamma secondary; median fluorescence, nonlinear fit; table under the graph. The method, then: as §1

T1 sequence (Q9NYZ4 17-499): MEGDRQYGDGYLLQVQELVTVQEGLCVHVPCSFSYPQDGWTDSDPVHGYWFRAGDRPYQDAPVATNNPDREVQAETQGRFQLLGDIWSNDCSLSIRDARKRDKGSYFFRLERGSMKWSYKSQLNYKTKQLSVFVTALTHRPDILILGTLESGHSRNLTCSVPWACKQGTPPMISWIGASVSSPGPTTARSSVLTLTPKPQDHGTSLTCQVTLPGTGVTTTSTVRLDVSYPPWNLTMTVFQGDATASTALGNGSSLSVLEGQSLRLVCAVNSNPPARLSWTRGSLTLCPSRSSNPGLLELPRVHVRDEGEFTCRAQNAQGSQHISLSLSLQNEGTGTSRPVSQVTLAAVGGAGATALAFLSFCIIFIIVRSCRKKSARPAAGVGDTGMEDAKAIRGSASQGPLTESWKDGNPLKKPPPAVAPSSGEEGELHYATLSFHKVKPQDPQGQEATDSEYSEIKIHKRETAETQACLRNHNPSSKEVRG

B1: Hex-B12, hexavalent Siglec8-VHH-Fc (xELL) (Fc fusion)
chain: QVQVVESGGGLVQPGGSLRLSCAASGSTSLLNAMAWYRQAPGKERELVAAISSGGGTYYADSVKGRFTISTNNAKNTLYLQMNSLKPEDTAMYYCAPGPNYSDYEEINWGQGTQVTVKPGGSGGSQVQVVESGGGLVQPGGSLRLSCAASGSTSLLNAMAWYRQAPGKERELVAAISSGGGTYYADSVKGRFTISTNNAKNTLYLQMNSLKPEDTAMYYCAPGPNYSDYEEINWGQGTQVTVKPGGSGGSQVQVVESGGGLVQPGGSLRLSCAASGSTSLLNAMAWYRQAPGKERELVAAISSGGGTYYADSVKGRFTISTNNAKNTLYLQMNSLKPEDTAMYYCAPGPNYSDYEEINWGQGTQVTVKPGGGGDKTHTCPPCPAPGGPSVFLFPPKPKDTLMISRTPEVTCVVVDVSHEDPEVKFNWYVDGVEVHNAKTKPREEQYNSTYRVVSVLTVLHQDWLNGKEYKCKVSNKALPAPIEKTISKAKGQPREPQVYTLPPSRDELTKNQVSLTCLVKGFYPSDIAVEWESNGQPENNYKTTPPVLDSDGSFFLYSKLTVDKSRWQQGNVFSCSVMHEALHNHYTQKSLSLSPGK
notes: Homodimer through the Fc; also called cx8466
Take B1: the binding result in experiment [1] is reported as “binds”.

B2: Hex-D1, hexavalent Siglec8-VHH-Fc (xELL) (Fc fusion)
chain: QVQLVESGGGLVQPGGSLRLSCAASGSIASIHGMGWYRQAPGKERELVAAIAGEGSTYYADSVKGRFTISRDFAKNTLYLQMNNLKAEDTAMYYCANNDERDDYWGQGTQVTVKPGGSGGSQVQLVESGGGLVQPGGSLRLSCAASGSIASIHGMGWYRQAPGKERELVAAIAGEGSTYYADSVKGRFTISRDFAKNTLYLQMNNLKAEDTAMYYCANNDERDDYWGQGTQVTVKPGGSGGSQVQLVESGGGLVQPGGSLRLSCAASGSIASIHGMGWYRQAPGKERELVAAIAGEGSTYYADSVKGRFTISRDFAKNTLYLQMNNLKAEDTAMYYCANNDERDDYWGQGTQVTVKPGGGGDKTHTCPPCPAPGGPSVFLFPPKPKDTLMISRTPEVTCVVVDVSHEDPEVKFNWYVDGVEVHNAKTKPREEQYNSTYRVVSVLTVLHQDWLNGKEYKCKVSNKALPAPIEKTISKAKGQPREPQVYTLPPSRDELTKNQVSLTCLVKGFYPSDIAVEWESNGQPENNYKTTPPVLDSDGSFFLYSKLTVDKSRWQQGNVFSCSVMHEALHNHYTQKSLSLSPGK
notes: Homodimer through the Fc; also called cx8523
For the molecule B2, the binding result in experiment [1] was “binds”.

B3: Tet-B12, tetravalent Siglec8-VHH-Fc (xELL) (Fc fusion)
chain: QVQVVESGGGLVQPGGSLRLSCAASGSTSLLNAMAWYRQAPGKERELVAAISSGGGTYYADSVKGRFTISTNNAKNTLYLQMNSLKPEDTAMYYCAPGPNYSDYEEINWGQGTQVTVKPGGSGGSQVQVVESGGGLVQPGGSLRLSCAASGSTSLLNAMAWYRQAPGKERELVAAISSGGGTYYADSVKGRFTISTNNAKNTLYLQMNSLKPEDTAMYYCAPGPNYSDYEEINWGQGTQVTVKPGGGGDKTHTCPPCPAPGGPSVFLFPPKPKDTLMISRTPEVTCVVVDVSHEDPEVKFNWYVDGVEVHNAKTKPREEQYNSTYRVVSVLTVLHQDWLNGKEYKCKVSNKALPAPIEKTISKAKGQPREPQVYTLPPSRDELTKNQVSLTCLVKGFYPSDIAVEWESNGQPENNYKTTPPVLDSDGSFFLYSKLTVDKSRWQQGNVFSCSVMHEALHNHYTQKSLSLSPGK
notes: Homodimer through the Fc; also called cx8467
Turning to B3, in experiment [1], the binding result was “binds”.

B4: Tet-E2, tetravalent Siglec8-VHH-Fc (xELL) (Fc fusion)
chain: QVQLVESGGGLVQPGGSLRLSCATSGIIFTSNVINWYRQAPGKQREFVAFITSITSGQSTMYADAVKGRFTVSRDNDKNIGYLQMTSLQPEDTARYVCNVGAYWGQGTQVTVKPGGSGGSQVQLVESGGGLVQPGGSLRLSCATSGIIFTSNVINWYRQAPGKQREFVAFITSITSGQSTMYADAVKGRFTVSRDNDKNIGYLQMTSLQPEDTARYVCNVGAYWGQGTQVTVKPGGGGDKTHTCPPCPAPGGPSVFLFPPKPKDTLMISRTPEVTCVVVDVSHEDPEVKFNWYVDGVEVHNAKTKPREEQYNSTYRVVSVLTVLHQDWLNGKEYKCKVSNKALPAPIEKTISKAKGQPREPQVYTLPPSRDELTKNQVSLTCLVKGFYPSDIAVEWESNGQPENNYKTTPPVLDSDGSFFLYSKLTVDKSRWQQGNVFSCSVMHEALHNHYTQKSLSLSPGK
notes: Homodimer through the Fc; also called cx8463
As for B4, the binding result in experiment [1] is given as “binds”.

B5: Siglec8 hzG2v2.1, monomeric VHH-hIgG1 fusion (Fc NNT) (Fc fusion)
chain: EVQLLESGGGEVQPGGSLRLSCAASGSISIFSMYVVAWYRQAPGKEREWVAFIQRGGTANYAESAKGRFTISRDNAKNTVYLQMSSLRAEDTAVYYCNYINSDNEIGGPWGQGTLVTVKP
notes: Monomeric format; not shown: non-dimerizing human IgG1 Fc variant lacking a hinge (Fc NNT)
For the molecule B5, the Kd (usually a measure of binding affinity in units of concentration) in experiment [2] was 1.57 nM. Moreover, the Bmax in experiment [3] was 3.81e+06 Median (anti-human A647).

B6: Siglec8 hzG2v14, monomeric VHH-hIgG1 fusion (Fc NNT) (Fc fusion)
chain: B5 chain with S102T
notes: as for B5
For the molecule B6, the Kd in experiment [2] came to 0.164 nM. The Bmax in experiment [3] was 1.35e+06 Median (anti-human A647).

B7: Siglec8 hzG2v11, monomeric VHH-hIgG1 fusion (Fc NNT) (Fc fusion)
chain: B5 chain with N101Q
notes: as for B5
For the molecule B7, the Kd in experiment [2] came to 0.14 nM. For the same molecule, the Bmax in experiment [3] is 1.47e+06 Median (anti-human A647).

B8: Siglec8 hzG2v12, monomeric VHH-hIgG1 fusion (Fc NNT) (Fc fusion)
chain: B5 chain with N101S
notes: as for B5
As to B8, in experiment [2], the Kd is 0.327 nM. Also, the Bmax in experiment [3] is 1.25e+06 Median (anti-human A647).

B9: Siglec8 hzG2v24, monomeric VHH-hIgG1 fusion (Fc NNT) (Fc fusion)
chain: B5 chain with E1Q, Q3T, L5K, E11L, Q13R, P14T, E46Q
notes: as for B5
In the case of B9, binding in experiment [2] was put at a Kd of 0.181 nM. Moreover, in experiment [3], the Bmax is 1.27e+06 Median (anti-human A647).

B10: Siglec8 hzG2v16, monomeric VHH-hIgG1 fusion (Fc NNT) (Fc fusion)
chain: B5 chain with M33L
notes: as for B5
As to B10, the Kd in experiment [2] came out at 0.1 nM. The Bmax in experiment [3] was 1.49e+06 Median (anti-human A647).

B11: Siglec8 hzG2v13, monomeric VHH-hIgG1 fusion (Fc NNT) (Fc fusion)
chain: B5 chain with N101T
notes: as for B5
Consider B11, for which the Kd in experiment [2] came out at 0.138 nM. The Bmax in experiment [3] was 1.06e+06 Median (anti-human A647).

B12: Siglec8 hzG2v6.1, monomeric VHH-hIgG1 fusion (Fc NNT) (Fc fusion)
chain: B5 chain with E46Q, A51S
notes: as for B5
The molecule B12 had a Kd in experiment [2] of 1.7 nM. Further, the Bmax in experiment [3] is 3.63e+06 Median (anti-human A647).

B13: Siglec8 hzG2v15, monomeric VHH-hIgG1 fusion (Fc NNT) (Fc fusion)
chain: B5 chain with M33Y
notes: as for B5
B13 returned a Kd in experiment [2] of 0.175 nM. Besides, in experiment [3], the Bmax was 1.4e+06 Median (anti-human A647).

B14: Tet-D1, tetravalent Siglec8-VHH-Fc (xELL) (Fc fusion)
chain: QVQLVESGGGLVQPGGSLRLSCAASGSIASIHGMGWYRQAPGKERELVAAIAGEGSTYYADSVKGRFTISRDFAKNTLYLQMNNLKAEDTAMYYCANNDERDDYWGQGTQVTVKPGGSGGSQVQLVESGGGLVQPGGSLRLSCAASGSIASIHGMGWYRQAPGKERELVAAIAGEGSTYYADSVKGRFTISRDFAKNTLYLQMNNLKAEDTAMYYCANNDERDDYWGQGTQVTVKPGGGGDKTHTCPPCPAPGGPSVFLFPPKPKDTLMISRTPEVTCVVVDVSHEDPEVKFNWYVDGVEVHNAKTKPREEQYNSTYRVVSVLTVLHQDWLNGKEYKCKVSNKALPAPIEKTISKAKGQPREPQVYTLPPSRDELTKNQVSLTCLVKGFYPSDIAVEWESNGQPENNYKTTPPVLDSDGSFFLYSKLTVDKSRWQQGNVFSCSVMHEALHNHYTQKSLSLSPGK
notes: Homodimer through the Fc; also called cx8469
On to B14, for which the binding result in experiment [1] is “binds”.

The values are drawn from patent publication US20250042997A1 (PHYLAXIS BIOSCIENCE, published 2025).
